Assay results reported in US20230234991A1, “SELF-ASSEMBLED PEPTIDE NANORODS AND USES THEREOF” (TRANSFERT PLUS, SOCIÉTÉ EN COMMANDITE, priority 2020, published 2023).
Where “and” joins values, the source holds several entries; their conditions need not be identical. Equal values may be shown once. Entries after “also recorded” stand apart in the source; their conditions may differ.

Key:
[1] = Negative-stain transmission electron microscopy of the assemblies; type: physicochemical
[2] = Atomic force microscopy of the assemblies; type: physicochemical
[3] = Zeta potential; type: physicochemical
[4] = target: T1, TLR2 (Mus musculus, UniProt Q9QUN7); experiment: TLR-2 stimulation, SEAP activity in HEK-Blue mTLR2 cells; type: cell-based; conditions: HEK-Blue mTLR2 cells, 16 h
T1 construct: host or cells: HEK293 (HEK-Blue mTLR2)
T1 sequence (Q9QUN7 25-784): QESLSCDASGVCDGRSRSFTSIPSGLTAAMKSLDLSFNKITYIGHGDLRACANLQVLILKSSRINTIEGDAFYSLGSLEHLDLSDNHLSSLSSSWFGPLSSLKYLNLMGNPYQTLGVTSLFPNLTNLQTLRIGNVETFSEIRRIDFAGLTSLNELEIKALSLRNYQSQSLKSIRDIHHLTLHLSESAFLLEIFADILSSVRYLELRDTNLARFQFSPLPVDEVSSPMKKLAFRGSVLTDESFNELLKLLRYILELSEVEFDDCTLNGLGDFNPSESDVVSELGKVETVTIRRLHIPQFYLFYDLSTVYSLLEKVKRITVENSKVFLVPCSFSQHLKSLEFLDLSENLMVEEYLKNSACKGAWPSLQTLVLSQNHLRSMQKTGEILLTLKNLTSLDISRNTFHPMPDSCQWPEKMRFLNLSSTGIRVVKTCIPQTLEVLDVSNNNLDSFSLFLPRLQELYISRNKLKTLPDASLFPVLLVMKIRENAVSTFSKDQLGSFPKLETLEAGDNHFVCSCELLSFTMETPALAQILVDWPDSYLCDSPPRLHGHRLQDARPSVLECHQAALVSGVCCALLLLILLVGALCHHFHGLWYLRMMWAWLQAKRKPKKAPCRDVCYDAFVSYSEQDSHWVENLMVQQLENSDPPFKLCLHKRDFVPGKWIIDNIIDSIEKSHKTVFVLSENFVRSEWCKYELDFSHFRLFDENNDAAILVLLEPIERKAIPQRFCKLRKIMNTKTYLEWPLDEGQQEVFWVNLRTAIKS
Procedure: TLR-2 stimulation. HEK293 cells stably co-transfected with mTLR2 and SEAP (HEK-Blue mTLR2 cells, InvivoGen) were cultivated in Dulbecco's Modified Eagle's Medium supplemented with 4.5 g/I glucose, 10% (v/v) fetal bovine serum, 100 U/ml penicillin, […], […], 2 mM L-glutamine. At 50-80% confluency, cells were seeded in Hek-Blue detection medium (InvivoGen) at a density of 50,000 cells/well in a 96-well plate containing NRs and controls. After 16 h incubation at 37° C. in 5% CO2, absorbance was monitored at 630 nm.

[5] = Thermal denaturation monitored by CD spectroscopy; type: physicochemical; conditions: CD at 222, 212 and 205 nm
[6] = tested on: INS-1E cells; type: cell-based, Rat; conditions: 24 h, 50×10^−6 m
[7] = tested on: HEK293T cells
[8] = tested on: macrophage cells (J774A.1)
[9] = tested on: dendritic-like cells (DC2.4)

## Ac-KGSGSSNNFGAILSS-NH2 [Ac-KI10]
[1]; pH 7.4
  Morphology: rope-like fibrils; also recorded: thick rope-like
[2]
  Heigth: 7.0 nm and 7.0 ± 0.7 nm
[3]
  Surface charge: 49 ± 5 mV

## HGSGSSNNFGAILSS [HI10]
[2]
  Morphology of variants of the KI10 sequence: do not adopt a short-like rod confirmation

## Pam2CSK4
[4]
  SEAP activity: SEAP activity was measured

## RGSGSSNNFGAILSS [RI10]
[2]
  Morphology of variants of the KI10 sequence: do not adopt a short-like rod confirmation

## islet amyloid polypeptide (KCNTATCATQRLANFLVHSSNNFGAILSSTNVGSNTY; Islet amyloid polypeptide; UniProt P10997 34-70, looked up) [IAPP]
[1]; Tris 50×10^−3 M pH 7.4, rotary agitation 48 h, 150×10^−6 M (KKI10 500×10^−6 M)
  Morphology: polymorphic twisted ribbons and fibrils
[5]
  Thermal denaturation: no melt observed
[6]
  calcein-AM/ethidium homodimer-1 staining: increase of ethidium homodimer-1 and a decrease of calcein-AM staining
[7]
  calcein-AM/ethidium homodimer-1 staining: increase of ethidium homodimer-1 and a decrease of calcein-AM staining
[8]
  Cytotoxicity: high decrease of viability
[9]
  Cytotoxicity: high decrease of viability
